Experimental data taken from PMC8390506, “Interaction of spindle assembly factor TPX2 with importins-α/β inhibits protein phase separation” (The Journal of Biological Chemistry, 2021).
Positions count from the first letter of the chain named.

Experiments:
[1] = biological target: T1, Targeting Protein for XKlp2 (TPX2), full length, wild type (Xenopus laevis, UniProt Q6NUF4 1-716); assay: cell-based or functional assay
T1 sequence (looked up): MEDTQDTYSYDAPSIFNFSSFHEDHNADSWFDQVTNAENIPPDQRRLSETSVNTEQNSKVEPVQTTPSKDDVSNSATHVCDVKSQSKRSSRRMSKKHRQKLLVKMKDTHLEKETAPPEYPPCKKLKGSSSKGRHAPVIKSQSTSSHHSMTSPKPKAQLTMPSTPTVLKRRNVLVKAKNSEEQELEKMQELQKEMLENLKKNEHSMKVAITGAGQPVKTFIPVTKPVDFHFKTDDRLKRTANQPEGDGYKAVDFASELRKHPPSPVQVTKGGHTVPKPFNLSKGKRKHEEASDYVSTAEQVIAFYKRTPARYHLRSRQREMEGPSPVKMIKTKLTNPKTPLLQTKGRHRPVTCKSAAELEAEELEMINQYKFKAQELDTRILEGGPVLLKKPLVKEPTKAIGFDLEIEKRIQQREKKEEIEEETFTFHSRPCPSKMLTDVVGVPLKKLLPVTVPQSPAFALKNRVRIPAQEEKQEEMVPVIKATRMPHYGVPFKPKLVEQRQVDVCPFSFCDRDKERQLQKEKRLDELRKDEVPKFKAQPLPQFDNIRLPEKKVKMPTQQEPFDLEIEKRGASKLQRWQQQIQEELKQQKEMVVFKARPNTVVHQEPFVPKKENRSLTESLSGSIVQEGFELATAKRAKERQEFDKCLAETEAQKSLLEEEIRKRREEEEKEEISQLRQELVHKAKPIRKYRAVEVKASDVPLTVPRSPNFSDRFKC

[2] = biological target: T1, Targeting Protein for XKlp2 (TPX2), …; assay: SEC-MALS; Superdex-200-increase 3.2/300; importin-αΔIBB alone and TPX2 (2 μM) with importin-αΔIBB (20 μM); conditions: both partners purified
[3] = biological target: the molecule itself; assay: as above
[4] = biological target: triple-mutant TPX2 (3M-TPX2) (Xenopus laevis, UniProt Q6NUF4 1-716, K123A | K124A | K126A | K284A | R285A | K327A | K330A); assay: BLI; Octet (ForteBio); TPX2 attached to sensors, importin concentration varied; normalized amplitudes; apparent Kd; conditions: both partners purified
[5] = biological target: T1, Targeting Protein for XKlp2 (TPX2), …; assay: as above; conditions: both partners purified
TPX2 construct 1 to 178 = biological target: T2, TPX2 construct 1 to 178 (Xenopus laevis, UniProt Q6NUF4 1-178); assay: as above; conditions: both partners purified
T2 construct: TPX2, Xenopus laevis, amino acids 1-178; also called wild-type-1-178 TPX2 construct; TPX2 1 to 178; source: recombinant, purified to >95% purity
T2 sequence (looked up): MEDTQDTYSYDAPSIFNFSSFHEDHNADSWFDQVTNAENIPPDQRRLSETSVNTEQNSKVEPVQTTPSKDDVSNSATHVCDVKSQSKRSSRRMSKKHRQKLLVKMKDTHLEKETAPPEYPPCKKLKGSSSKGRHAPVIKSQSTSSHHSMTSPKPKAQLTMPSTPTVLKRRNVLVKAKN

TPX2 construct 1 to 260 = biological target: T3, TPX2 construct 1 to 260 (Xenopus laevis, UniProt Q6NUF4 1-260); assay: as above; conditions: both partners purified
T3 construct: TPX2, Xenopus laevis, amino acids 1-260; also called TPX2 1 to 260; source: recombinant, purified to >95% purity
T3 sequence (looked up): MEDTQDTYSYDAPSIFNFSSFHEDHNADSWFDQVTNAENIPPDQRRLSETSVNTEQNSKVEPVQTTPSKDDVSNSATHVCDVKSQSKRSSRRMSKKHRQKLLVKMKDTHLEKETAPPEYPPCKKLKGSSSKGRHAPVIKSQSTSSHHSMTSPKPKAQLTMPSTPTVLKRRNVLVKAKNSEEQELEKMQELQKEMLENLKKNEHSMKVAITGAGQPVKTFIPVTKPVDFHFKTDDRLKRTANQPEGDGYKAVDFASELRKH

[6] = biological target: T4, TPX2 1 to 178 with the KKLK motif mutated (K123A, K124A, K126A) (Xenopus laevis, UniProt Q6NUF4 1-178, K123A | K124A | K126A); assay: as above; conditions: both partners purified
T4 construct: TPX2, Xenopus laevis, amino acids 1-178 with the lysines of KKLK (123-126) mutated to alanines; also called TPX2 1 to 178 (K123A, K124A, K126A); source: recombinant, purified to >95% purity
T4 sequence (looked up): T2 sequence (looked up) with K123A, K124A, K126A

B1: importin-αΔIBB (truncated importin-α without the importin-β-binding domain) (domain or fragment)
chain: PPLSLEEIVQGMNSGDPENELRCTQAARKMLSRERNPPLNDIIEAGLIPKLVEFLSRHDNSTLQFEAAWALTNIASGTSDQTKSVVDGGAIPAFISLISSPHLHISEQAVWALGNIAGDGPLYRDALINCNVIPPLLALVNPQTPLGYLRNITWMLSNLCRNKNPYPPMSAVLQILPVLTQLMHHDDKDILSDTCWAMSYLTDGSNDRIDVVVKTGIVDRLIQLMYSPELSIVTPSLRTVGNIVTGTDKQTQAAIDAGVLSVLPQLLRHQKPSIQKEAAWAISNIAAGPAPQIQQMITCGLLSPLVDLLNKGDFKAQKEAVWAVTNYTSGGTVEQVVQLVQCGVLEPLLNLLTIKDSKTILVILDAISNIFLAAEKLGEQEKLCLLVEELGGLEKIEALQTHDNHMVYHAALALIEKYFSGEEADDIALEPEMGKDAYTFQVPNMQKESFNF
inhibition of TPX2 condensation (fluorescence microscopy; TPX2 1 μM, importin-αΔIBB 1x to 20x; enhancement at lower concentrations) [1]: ~20 fold excess
stoichiometry N [2]: > 1 importin-αΔIBB:TPX2
stoichiometry N [3]: 2
Kd [4]: 410 ± 70 nM
Kd [5]: 61 ± 10 nM
Kd (TPX2 construct 1 to 178): 15 ± 3 nM
Kd (TPX2 construct 1 to 260): 20 ± 4 nM
fold loss of binding against the wild-type 1-178 construct [6]: 10 fold
